Publication PMC10277282

Target: MHC II (mouse (endogenous in BMDM)) (UniProt P14434)
Sequence of UniProt P14434 (P14434 24-256, chain 1 of 2): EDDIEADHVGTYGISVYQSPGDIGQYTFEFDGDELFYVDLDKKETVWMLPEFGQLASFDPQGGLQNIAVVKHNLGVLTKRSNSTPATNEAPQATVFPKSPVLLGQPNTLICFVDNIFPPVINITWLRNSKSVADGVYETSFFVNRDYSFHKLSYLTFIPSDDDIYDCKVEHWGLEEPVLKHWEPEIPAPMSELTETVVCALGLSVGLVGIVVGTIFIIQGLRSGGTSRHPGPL
Sequence of UniProt P14434 (P14483 28-265, chain 2 of 2, further chain): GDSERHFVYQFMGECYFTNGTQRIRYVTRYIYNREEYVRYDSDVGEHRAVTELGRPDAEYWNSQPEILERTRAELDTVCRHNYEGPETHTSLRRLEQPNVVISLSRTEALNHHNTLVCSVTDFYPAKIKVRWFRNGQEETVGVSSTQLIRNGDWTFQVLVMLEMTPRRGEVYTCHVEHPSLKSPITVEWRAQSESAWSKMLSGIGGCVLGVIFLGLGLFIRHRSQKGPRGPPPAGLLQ

TLR4 hyperinflammation in vivo (LPS sepsis in mice); concentration of sCD4 needed for 50% inhibition: 125 nM
TNF/IL-6 response of macrophages to LPS in vitro; concentration of sCD4 needed for 50% inhibition of TLR4 hyperinflammation: 25 nM
Substance: soluble CD4 (ectodomain of CD4, D1-D4 domains) (from UniProt P06332 27-394) (domain or fragment)
